The results in this text go back to patent US20150284465A1 (Chugai, published 2015).

For test [1], the target named is T1, recombinant human IL-6R sR (R&D systems) (human, UniProt P08887 20-358).
T1 construct: Bought soluble receptor; also called rhIL-6sR; rhIL-s6R
T1 sequence (looked up): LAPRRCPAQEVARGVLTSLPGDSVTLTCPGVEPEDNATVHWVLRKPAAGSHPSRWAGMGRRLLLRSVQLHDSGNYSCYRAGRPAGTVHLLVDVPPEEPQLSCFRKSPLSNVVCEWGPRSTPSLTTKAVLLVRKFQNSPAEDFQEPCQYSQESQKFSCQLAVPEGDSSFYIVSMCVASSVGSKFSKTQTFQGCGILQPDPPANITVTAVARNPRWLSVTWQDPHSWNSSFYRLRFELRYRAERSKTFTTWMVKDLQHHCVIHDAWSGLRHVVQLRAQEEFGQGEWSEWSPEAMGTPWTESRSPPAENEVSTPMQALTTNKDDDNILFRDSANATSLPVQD
The test is described as follows: SPR (Biacore T100), antibody captured on Protein A, rhIL-6sR as analyte, 25 C. Here is the method:
The antigen-antibody interaction was measured by immobilizing 4,400 to 5,000 RU of rec-Protein A (Zymed) immobilized onto a sensor chip by the amine coupling method, binding various antibodies onto the chip, and then flowing the antigen over the chip as an analyte. For the antigen, various concentrations of rhIL-6sR were used. All measurements were carried out at 25° C. The kinetic parameters, association rate constant kₐ (1/Ms) and dissociation rate constant kd (1/s) were calculated from the sensorgrams obtained by measurement. Then, KD (M) was determined based on the rate constants. The respective parameters were determined using Biacore T100 Evaluation Software (Biacore).

Test [2] deals with T2, soluble human IL-31 receptor (human, UniProt Q8NI17 20-514).
T2 construct: also called soluble NR10; NR10
T2 sequence: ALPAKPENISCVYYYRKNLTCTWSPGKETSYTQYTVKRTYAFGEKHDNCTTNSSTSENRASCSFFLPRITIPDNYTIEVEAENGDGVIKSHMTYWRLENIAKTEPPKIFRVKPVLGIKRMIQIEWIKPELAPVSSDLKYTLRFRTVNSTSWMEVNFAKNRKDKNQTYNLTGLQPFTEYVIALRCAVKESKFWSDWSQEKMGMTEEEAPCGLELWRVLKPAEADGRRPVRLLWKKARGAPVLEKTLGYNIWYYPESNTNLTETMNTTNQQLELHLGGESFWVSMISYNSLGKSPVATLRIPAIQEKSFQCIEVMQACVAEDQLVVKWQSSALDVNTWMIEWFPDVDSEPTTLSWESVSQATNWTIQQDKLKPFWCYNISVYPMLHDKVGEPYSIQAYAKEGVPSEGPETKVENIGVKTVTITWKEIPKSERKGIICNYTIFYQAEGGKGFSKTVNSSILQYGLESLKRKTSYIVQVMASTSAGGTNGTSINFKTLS
The test is described as follows: SPR (Biacore T100), antibody captured on Protein A, soluble human IL-31 receptor as analyte. Here is the method: The antigen-antibody reaction kinetics between anti-human IL-31 receptor antibody and soluble human IL-31 receptor was analyzed using Biacore T100 (GE Healthcare Biosciences). The antigen-antibody interaction was measured by immobilizing rec-Protein A (Zymed) (hereinafter “Protein A”) onto a sensor chip, capturing an antibody with the immobilized Protein A, and then reacting the antibody with the antigen as an analyte using a method known to those skilled in the art. […] In the first step of the measurement, the antibody in solution was bound to Protein A/G, and the analyte solution was allowed to interact with the antibody. After three minutes of interaction, the solution was switched to HBS-EP+, and the dissociation phase was monitored for five minutes. After measurement of the dissociation phase, the sensor chip was regenerated by washing with 10 μl of 10 mM glycine-HCl (pH 1.5). The association, dissociation, and regeneration constitute one analysis cycle. Each antibody was measured according to this cycle. The obtained sensorgrams were kinetically analyzed using the Biacore-specific data analysis software, Biacore T100 Evaluation Software (GE Healthcare Biosciences).
A general note: Surface plasmon resonance follows binding to a sensor surface in real time, without labels.

The target of test [3] is T3, SR344 (N-terminal 1st to 344th amino acids of soluble human IL-6R) (human, UniProt P08887 20-344, limits assumed).
T3 construct: also called recombinant soluble IL-6 receptor; soluble human IL-6 receptor
T3 sequence (looked up): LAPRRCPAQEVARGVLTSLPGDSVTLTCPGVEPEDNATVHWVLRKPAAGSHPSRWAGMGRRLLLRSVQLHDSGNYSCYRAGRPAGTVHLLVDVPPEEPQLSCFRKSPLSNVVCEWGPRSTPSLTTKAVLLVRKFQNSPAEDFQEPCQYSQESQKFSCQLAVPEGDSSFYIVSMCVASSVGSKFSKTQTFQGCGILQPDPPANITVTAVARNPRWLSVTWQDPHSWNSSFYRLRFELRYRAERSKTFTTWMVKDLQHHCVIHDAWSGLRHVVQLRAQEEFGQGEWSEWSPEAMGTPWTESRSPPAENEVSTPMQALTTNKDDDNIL
The test is described as follows: SPR (Biacore T100), Protein A/G capture, SR344 at 0, 0.36 and 1.4 µg/ml, 15 min dissociation, 37 C. As to the method:
This measurement was carried out under the same conditions described in Example 2. The running buffer used was HBS-EP+, and the flow rate was 20 μl/min. Each antibody was prepared so that about 100 RU of the antibody was bound to Protein A/G. SR344 was prepared at 0, 0.065, 0.131, and 0.261 μg/ml using HBS-EP+ and used as an analyte. In the first step of the measurement, the antibody in solution was bound to Protein A/G, and the analyte solution was allowed to interact therewith. After three minutes of interaction, the solution was switched to HBS-EP+, and the dissociation phase was monitored for 10 or 15 minutes. After measurement of the dissociation phase, the sensor chip was regenerated by washing with 10 μl of 10 mM glycine-HCl (pH 1.5). The association, dissociation, and regeneration constitute one analysis cycle. Each antibody was measured according to this cycle.
The Tm of purified H96/PF1L-IgG1 was determined by the method described in Example 5. The affinity measurement was carried out under essentially the same conditions used in Example 5. Note that the concentration of SR344 was adjusted to 0, 0.36, and 1.4 μg/ml, and the dissociation phase was monitored for 15 minutes.

Positions count from the first letter of the chain named.

B1: RDC-5 (antibody, V domains shown)
VH: QVQLQESGPGLVRPSQTLSLTCTVSGYSITSDHAWSWVRQPPGRGLEWIGYISYSGITTYNPSLKSRVTMLRDTSKNQFSLRLSSVTAADTAVYYCARVLARITAMDYWGQGSLVTVSS
VL: DIQMTQSPSSLSASVGDRVTITCRASQDISSYLNWYQQKPGKAPKLLIYYTSRLHSGVPSRFSGSGSGTDFTFTISSLQPEDIATYYCQQGNTLPYTFGQGTKVEIK
notes: also called RDC-5H/L(WT)
For the molecule B1, in test [1], the Kd was found to be 0.022 nM, the dissociation rate constant (koff) was found to be 2.8e-05 s⁻¹ and the kon stood at 1.2e+06 M⁻¹ s⁻¹.

B2: RDC-8 (antibody, V domains shown)
VH: B1 VH with V99L
VL: B1 VL
notes: also called RDC-8H/L(WT)
B2: in test [1], the dissociation constant Kd is 0.025 nM, the off-rate (koff) was 3.6e-05 s⁻¹ and the on-rate (kon) turned out to be 1.4e+06 M⁻¹ s⁻¹.

B3: RDC-3 (antibody, V domains shown)
VH: B1 VH with V99I, I103A
VL: B1 VL
notes: also called RDC-3H/L(WT)
Take B3: in test [1], the Kd stood at 0.037 nM, the koff amounted to 3.7e-05 s⁻¹ and the kon worked out at 1e+06 M⁻¹ s⁻¹.

B4: RDC-4 (antibody, V domains shown)
VH: B1 VH with V99T, I103A
VL: B1 VL
notes: also called RDC-4H/L(WT)
For the molecule B4, in test [1], the Kd was 0.027 nM, the off-rate constant (koff) is 2.9e-05 s⁻¹ and the on-rate (kon) stood at 1.1e+06 M⁻¹ s⁻¹.

B5: RDC-7 (antibody, V domains shown)
VH: B1 VH with V99T
VL: B1 VL
notes: also called RDC-7H/L(WT)
As to B5, in test [1], the Kd was determined as 0.038 nM, the off-rate constant (koff) turned out to be 4.2e-05 s⁻¹ and the association rate constant (kon) turned out to be 1.1e+06 M⁻¹ s⁻¹.

B6: RDC-11 (antibody, V domains shown)
VH: B1 VH with V99S, I103T
VL: B1 VL with Q89G, T93R
notes: also called H(WT)/RDC-11L
As for B6, in test [1], the Kd is 0.065 nM, the off-rate (koff) was 7e-05 s⁻¹ and the on-rate (kon) amounted to 1.1e+06 M⁻¹ s⁻¹.

B7: RDC-6 (antibody, V domains shown)
VH: B1 VH with V99I
VL: B1 VL
notes: also called RDC-6H/L(WT)
In the case of B7, in test [1], the Kd stood at 0.029 nM, the koff was 3.5e-05 s⁻¹ and the on-rate (kon) turned out to be 1.2e+06 M⁻¹ s⁻¹.

B8: RD-28 (antibody, V domains shown)
VH: B1 VH with V99S, I103T
VL: B1 VL with Q89G
Consider B8, for which, in test [1], the equilibrium dissociation constant (Kd) came out at 0.12 nM, the koff worked out at 0.00011 s⁻¹ and the kon is 940000 M⁻¹ s⁻¹.

B9: RDC-2 (antibody, V domains shown)
VH: B1 VH with I103A
VL: B1 VL
notes: also called RDC-2H/L(WT)
In the case of B9, in test [1], the Kd was found to be 0.022 nM, the koff was found to be 2.5e-05 s⁻¹ and the association rate constant (kon) is 1.1e+06 M⁻¹ s⁻¹.

B10: 31R_H2L2 (antibody, V domains shown)
VH: QVQLVQSGAEVKKPGASVKVSCKASGYTFTGYIMNWVRQAPGQGLEWMGLINPYNGGTSYNQQFQDRVTITADESTSTAYMELSSLRSEDTAVYYCARDGYDDGPYTMDYWGQGTLVTVSS
VL: DIQMTQSPSSLSASVGDRVTITCQTSEDIYSFLAWYQQKPGKAPKLLIYNAQTEAQGVPSRFSGSGSGTDFTLTISSLQPEDFATYYCQHHYESPLTFGGGTKVEIKR
Take B10: in test [2], the Kd came to 3.9 nM, the koff was found to be 0.0016 s⁻¹ and the kon is 420000 M⁻¹ s⁻¹.

B11: 31R_H1L1 (antibody)
heavy: QVQLVQSGAEVKKPGASVKVSCKASGYTFTGYIMNWVRQAPGQGLEWMGLINPYNGGTSYNQKFKGRVTITADESTSTAYMELSSLRSEDTAVYYCARDGYDDGPYTMDYWGQGTLVTVSSASTKGPSVFPLAPSSKSTSESTAALGCLVKDYFPEPVTVSWNSGALTSGVHTFPAVLQSSGLYSLSSVVTVPSSNFGTQTYTCNVDHKPSNTKVDKTVERKSCVECPPCPAPPVAGPSVFLFPPKPKDTLMISRTPEVTCVVVDVSHEDPEVQFNWYVDGVEVHNAKTKPREEQFNSTFRVVSVLTVVHQDWLNGKEYKCKVSNKGLPAPIEKTISKTKGQPREPQVYTLPPSREEMTKNQVSLTCLVKGFYPSDIAVEWESNGQPENNYKTTPPMLDSDGSFFLYSKLTVDKSRWQQGNVFSCSVMHEALHNHYTQKSLSLSPGK
light: DIQMTQSPSSLSASVGDRVTITCRTSENIYSFLAWYQQKPGKAPKLLIYNAKTLAKGVPSRFSGSGSGTDFTLTISSLQPEDFATYYCQHHYESPLTFGGGTKVEIKRTVAAPSVFIFPPSDEQLKSGTASVVCLLNNFYPREAKVQWKVDNALQSGNSQESVTEQDSKDSTYSLSSTLTLSKADYEKHKVYACEVTHQGLSSPVTKSFNRGEC
notes: Anti-human IL-31 receptor antibody
In test [2], B11 registered a dissociation constant Kd of 3.3 nM, an off-rate (koff) of 0.0012 s⁻¹ and a kon of 370000 M⁻¹ s⁻¹.

B12: 31R_H3L2 (antibody, V domains shown)
VH: B10 VH with Q62D
VL: B10 VL
In test [2], B12 came in with a Kd of 3.6 nM, a koff of 0.0016 s⁻¹ and an on-rate constant (kon) of 440000 M⁻¹ s⁻¹.

B13: H96/PF1L-IgG1 (antibody, V domains shown)
VH: QVQLQESGPGLVKPSETLSLTCAVSGYSISDDHAWSWVRQPPGEGLEWIGYISYSGITNYNPSLKGRVTISRDNSKNTLYLQMNSLRAEDTAVYYCARVLARITAMDYWGEGTLVTVSS
VL: DIQMTQSPSSLSASVGDSVTITCQASQDISSYLNWYQQKPGKAPELLIYYGSELHSGVPSRFSGSGSGTDFTFTISSLEAEDAATYYCGQGNRLPYTFGQGTKVEIE
Take B13: in test [3], binding was characterised by a dissociation constant (Kd) of 0.039 nM, the dissociation rate constant (koff) is 4.8e-05 s⁻¹ and the on-rate (kon) was 1.2e+06 M⁻¹ s⁻¹.

The term Kd denotes the concentration at which binding is half-saturated. Broadly, the koff is a measure of how fast the partners let go of each other. The term kon denotes a measure of how fast the partners come together.
